Experimental data taken from patent US12012446B2, “Epstein-Barr virus antibodies and uses thereof” (priority 2017, dated 2024).

Key:
[1] = test system: EBV-eGFP infection of Raji cells; assay: EBV neutralization assay in Raji cells; assay type: cell-based, Epstein-Barr virus; conditions: for EBV neutralization, summary statement: as stated in Example 8; for blocking of EBV infection of Raji cells (in words) / blocking of EBV infection of Raji cells (nAb activity): protein G and size-exclusion chromatography-purified mAbs; for blocking of EBV infection of Raji cells (in words) / neutralization of EBV in Raji cells: 12.5-100 μg/ml; for neutralization of EBV in Raji cells (in words): spin-column purified mAbs, 12.5, 25, 50 and 100 μg/ml; for blocking of EBV infection of Raji cells (nAb activity): lowest concentration 12.5 μg/ml; for neutralization of EBV in Raji cells: spin-column purified mAbs
Method: EBV neutralization assay was performed in Raji cells as previously described (47). Briefly, purified individual anti-gp350 mAbs were incubated with purified AGS-EBV-eGFP (titer calculated to infect at least 8% of HEK293 cells seeded in 100 μl of serum-free DMEM) for 2 hours at 37° C. To represent EBV infection of B cells, the pre-incubated anti-gp350 mAbs/AGS-EBV-eGFP were used to infect 5×10^5 Raji cells seeded in a 96-well plate for 2 hours at 37° C. Neutralizing 72A1 and non-neutralizing 2L10 anti-gp350 mAbs served as positive and negative controls, respectively. Infected cells were washed three times with PBS to remove any unbound viruses and antibodies. Washed, infected cells were incubated in 96-well plates at 37° C. for 48 hours post-infection and the number of eGFP+ (infected) cells was determined using flow cytometry. All dilutions were performed in quintuplicate and the assays were repeated three times. Antibody EBV neutralization activity was calculated as: % neutralization=(EBValone−EBVmAb)/(EBValone)×100.
However, this antibody was recently reported to be a mixture of both functional and non-functional antibodies (50). […] The percentage of eGFP+ cells (percent infection) was determined using flow cytometry as described (47). The nAbs 72A1 and E1D1 were used as positive controls, whereas the anti-gp350 non-neutralizing mAb 2L10 and KSHV gH/gL mAb 54A1 were used as negative controls. Because HB4, HB13, HB15, HB16, HB19, HB21, and HB23 were confirmed to be polyclonal based on isotyping and/or sequence data, they were eliminated from further consideration in the neutralization assay. HB18 was not used in neutralization experiments because it was identical to HB8.
The purified eGFP-tagged-EBV was titered in Raji cells to determine percent EBV infection using a range of volumes (50-250 μl) (FIG. 5A). Then initial neutralization of EBV was conducted in Raji cells using purified mAbs at various concentrations (12.5, 25, 50, and 100 μg/ml).
EBV-eGFP+ cells were enumerated using flow cytometry.

[2] = molecular target: T1, gp350 protein on gp350 expressing CHO cells (Epstein-Barr virus, UniProt P03200); assay: Flow cytometry of CHO cells stably expressing EBV gp350; assay type: binding; conditions: for type of gp350 epitope recognized (linear / conformational): concluded from flow cytometry and immunoblot
T1 construct: stably co-transfected with full-length pCAGGS-gp350/220 and pCI-puro vector; expressed in transfected cells; host or cells: CHO cells
Method: To assess the ability of purified anti-gp350 mAb to detect surface expression of EBV gp350 protein by flow cytometry, CHO cells that stably express EBV gp350 were harvested and stained with purified anti-gp350 (10 μg/ml), followed by AF488 goat anti-mouse IgG secondary antibody. Flow cytometric analysis was performed on a C-6 FC (BD Biosciences) and data was analyzed using FlowJo Cytometry Analysis software (FlowJo, LLC) as described (47). All the experiments were independently repeated three times.
These novel antibodies were analyzed by flow cytometric analysis for surface expression of gp350 protein on 10^6 CHO cells transfected with 1 μg of pCAGGS-gp350. gp350 expressing cells were resuspended in PBS, stained with anti-gp350 mAb, which detects the gp350 ED, followed by secondary Ab goat anti-mouse conjugated to AF488. Additionally, western blot analysis was conducted on untransfected and pCAGGS-gp350 transfected CHO lysate. Anti-gp350 mAb 72A1 was used as a positive control (1:100) and anti-gp350 hybridoma clone supernatants were used at 1:50, and anti-mouse secondary antibody was used at 1:2000.
Flow cytometric analysis of gp350 and gH/gL specificity was performed. CHO wild type cells and gp350 or gH/gL-expressing CHO cells were stained with primary antibodies, followed by secondary goat anti-mouse or anti-human conjugated to AF488. Unstained cells and cells stained with secondary goat anti-mouse or anti-human conjugated to AF488 alone, were used as negative controls.

goat anti-mouse IgG = assay: ELISA for reactivity to anti-mouse IgG (HAMA testing); assay type: binding; conditions: 10 μg/ml antibody on gp350-coated plates
From the text: ClustalW alignment of heavy chain (i) and light chain (ii) variable region amino acid sequences. Murine 72A1 heavy chain and light chain AA sequences are represented by SEQ ID NOs: 178 and 179, respectively, and humanized 72A1 heavy chain and light chain AA sequences are represented by SEQ ID NOs: 180 and 181, respectively. Regions of identical sequence are represented by *. Regions of similarity are represented by :. […] FIG. 4C: ELISA determining the reactivity of humanized 72A1 to murine IgG. Soluble EBV gp350 protein was used as the target antigen at 0.5 μg/ml. […] Bound antibodies were detected using HRP-conjugated anti-mouse IgG or anti-human IgG (1:2,000). […] Unstained cells and cells stained with secondary goat anti-mouse or anti-human conjugated to AF488 alone were used as negative controls.
ELISA was performed to determine the reactivity of chimeric and humanized antibodies to murine IgG. Soluble EBV gp350 or gH/gL protein was used as the target antigen at 0.5 μg/ml. […] Bound antibodies were detected using HRP-conjugated anti-mouse IgG or anti-human IgG (1:2,000). […] To determine whether chimeric and humanized anti-gp350 retained the ability to recognize linear epitopes on gp350, lysate from CHO WT cells and CHO cell stably expressing gp350 were analyzed by western blot analysis.

T1 sequence (P03200 whole entry): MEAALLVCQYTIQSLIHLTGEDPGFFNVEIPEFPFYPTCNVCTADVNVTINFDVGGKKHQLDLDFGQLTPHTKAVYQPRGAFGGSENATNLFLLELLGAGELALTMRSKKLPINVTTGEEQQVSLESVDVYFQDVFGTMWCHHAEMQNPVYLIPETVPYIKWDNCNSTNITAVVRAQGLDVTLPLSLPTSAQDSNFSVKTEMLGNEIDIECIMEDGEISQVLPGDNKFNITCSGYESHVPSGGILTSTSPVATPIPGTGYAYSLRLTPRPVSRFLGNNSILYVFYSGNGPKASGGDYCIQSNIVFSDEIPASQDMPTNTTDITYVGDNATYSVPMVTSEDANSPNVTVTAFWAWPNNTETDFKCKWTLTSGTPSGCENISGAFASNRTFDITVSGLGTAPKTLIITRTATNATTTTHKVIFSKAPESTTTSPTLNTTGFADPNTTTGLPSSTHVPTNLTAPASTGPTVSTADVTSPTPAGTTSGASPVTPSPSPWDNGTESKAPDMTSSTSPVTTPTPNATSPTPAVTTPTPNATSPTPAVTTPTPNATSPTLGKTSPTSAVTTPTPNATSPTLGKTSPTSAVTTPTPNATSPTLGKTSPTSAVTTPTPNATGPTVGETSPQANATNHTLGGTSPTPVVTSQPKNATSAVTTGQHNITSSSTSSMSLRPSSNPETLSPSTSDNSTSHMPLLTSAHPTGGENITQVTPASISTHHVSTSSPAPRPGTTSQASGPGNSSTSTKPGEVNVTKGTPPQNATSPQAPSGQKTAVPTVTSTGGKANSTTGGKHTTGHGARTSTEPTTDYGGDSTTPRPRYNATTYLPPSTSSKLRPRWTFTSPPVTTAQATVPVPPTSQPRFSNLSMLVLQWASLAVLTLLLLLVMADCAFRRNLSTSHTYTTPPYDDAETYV

B1: HB20: murine anti-EBV gp350 mAb, IgG2a κ; SEQ ID NO: 128 / 129; neutralizing (antibody, V domains shown)
VH: ELVKPGASVKLSCKASGYTFTSYWIQWVKQRPGQGLEWIGEINPTNGHTNYNEKFKTKATLTVDKSSSTAYMRLSSLTSEDSAVYYCARNLYYYGRPDYWGQGTSVTVSSAKTTAPSVYPLAPVCGDTTGSSVTLG
VL: SSLSASLGDRVTISCRASQDIGNYLNWYQQKPDGTVKLLIYYTSRLHSGVPSRFSGSGSGTDYSLTISNLEQEDIATYFCQQGNALPPTFGGGTKLEIKRADAAPTV
modifications: heavy chain mAb HB20; light chain mAb HB20
notes: murine anti-EBV gp350 mAb, IgG2a κ; neutralizing
EBV neutralization, summary statement [1]: one of the best nAb | blocking of EBV infection of Raji cells (in words) [1]: blocked EBV infection in a dose-dependent manner | neutralization of EBV in Raji cells (in words) [1]: failed to neutralize EBV infection | type of gp350 epitope recognized (linear / conformational) [2]: only recognized conformational epitopes

B2: HB11: murine anti-EBV gp350 mAb, IgG1 κ; SEQ ID NO: 120 / 121; neutralizing (antibody, V domains shown)
VH: PSLVKPSQTLSLTCSVTGDSITSGFWNWIRKFPGNKLEYMGYISYSGSTYYNPSLKSRISITRDTSKNQYYLQLNSVTTEDTATYYCARGNGGNYDWYFDVWGAGTTVTVSSAKTTPPSVYPLAPGSAAQTNSMVTLG
VL: AIMSASLGEKVTMSCRASSSVNFMNWYQQKSDDSPKLLIYYISNLAPGVPARFSGSGSGNSYSLTISGMEGEDAATYYCQQFTSSPSWTFGGGTKLEIKRADAAPTV
modifications: heavy chain mAb HB11; light chain mAb HB11
notes: murine anti-EBV gp350 mAb, IgG1 κ; neutralizing
blocking of EBV infection of Raji cells (in words) [1]: blocked EBV infection in a dose-dependent manner | neutralization of EBV in Raji cells (in words) [1]: dose-dependent neutralization | type of gp350 epitope recognized (linear / conformational) [2]: recognized both linear and conformational epitopes

B3: h72A1: humanized 72A1 IgG1; heavy and light chain SEQ ID NOs: 180 and 181 (antibody, V domains shown)
VH: EVQLVESGGGLVQPGGSLRLSCAASGSSFTDYTMNWMRQSPGKGLEWIGLINPYNGGTRYADSVKGRATLSLDKSKNTAYLQMNSLRAEDTAIYYCAGGLRRVNWFAYWGQGTLVTVSS
VL: DAQLTQSPILLSASVGDRVTITCRSSTGAVTTSNYANWVQERTNGSFRGLIGGTNNRVPGVPSRFSGSLSGDDATLTISSLQPEDEADYFCVLWHSNHWVFGAGTKVEIKR
blocking of EBV infection of Raji cells (nAb activity) [1]: 98% | Flow cytometry (CHO Cells) ([2]; CHO cells stably expressing gp350 on the surface, native/conformational epitopes): recognized native epitopes of gp350 expressed on CHO cells surface, comparable to m72A1 | reactivity to goat anti-mouse IgG above the background (1×PBS) (goat anti-mouse IgG): did not react at all

B4: m72A1: EBV anti-gp350 neutralizing mouse antibody purified from HB168 hybridoma (ATCC); SEQ ID NO: 100 / 101 (antibody, V domains shown)
VH: PELVKPGTSMKISCKASGSSFTDYTMNWMKQSHGKNLEWIGLINPYNGGTRYNQKFKGKATLTLDKSSSTAYMEVLSLTSEDSAVYYCAGGLRRVNWFAYWGQGTLVSVSAAKTTPPSVYPLAPGSAAQTNSMVTLG
VL: QAVLTQESALTTSPGETVTLTCRSSTGAVTTSNYANWVQEKPDHLFTGLIGGTNNRVPGVPARFSGSLIGDKAALTITGAQTEDEAIYFCVLWHSNHWVFGGGTKLTVL
modifications: heavy chain mAb 72A1; light chain mAb 72A1
blocking of EBV infection of Raji cells (nAb activity) [1]: 93% | neutralization of EBV in Raji cells (in words) [1]: dose-dependent neutralization | neutralization of EBV in Raji cells [1]: 35-80% | reactivity to goat anti-mouse IgG above the background (1×PBS) (goat anti-mouse IgG): 28 fold | reactivity to goat-anti-mouse IgG as compared to goat anti-human IgG (goat anti-mouse IgG): 9 fold

B5: HB5: murine anti-EBV gp350 mAb, IgG2a κ; SEQ ID NO: 108 / 109; neutralizing (antibody, V domains shown)
VH: AELVRPGASVKISCKAFGYTFTNHNINWVKQRPGQGLDWIGYINPYNDYTSYNQKFKGKATLTVDKSSNTAYMELSSLTSEDSAVYYCARSEGWLRRGAWFAYWGQGTLVTVSAAKTTAPSVYPLAPVCGDTTGSSVTLG
VL: AILSVSPGERVSFSCRASQSIGTSIHWYQQRTNDSPRLLIKYASESISGIPPRFSGSGSGTDFTLSINSVESEDIADYHCQQSNSWPMLTFGAGTKLELKRADAAPTV
modifications: heavy chain mAb HB5; light chain mAb HB5
notes: as for B1
EBV neutralization, summary statement [1]: non-neutralizing | blocking of EBV infection of Raji cells (in words) [1]: blocked EBV infection in a dose-dependent manner | blocking of EBV infection of Raji cells (nAb activity) [1]: 90% | neutralization of EBV in Raji cells (in words) [1]: dose-dependent neutralization | neutralization of EBV in Raji cells [1]: 60-80% | type of gp350 epitope recognized (linear / conformational) [2]: recognized both linear and conformational epitopes
